Reference: PMC4792071 (The Journal of Cell Biology, 2016)
Substitutions are numbered along the chain they refer to. One block for each binder: values may come before it.

Assays:
[1] = target: T1, Arl2^Q70L-Venus (Drosophila melanogaster, UniProt Q06849 1-184, Q70L); experiment: co-IP
T1 sequence (looked up): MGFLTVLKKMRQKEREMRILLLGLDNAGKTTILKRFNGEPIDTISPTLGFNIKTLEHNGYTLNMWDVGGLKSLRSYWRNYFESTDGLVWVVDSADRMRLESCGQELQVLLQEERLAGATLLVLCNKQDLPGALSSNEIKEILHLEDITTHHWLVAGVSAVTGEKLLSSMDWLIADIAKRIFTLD

[2] = target: T2, Arl2^T30N-Venus (Drosophila melanogaster, UniProt Q06849 1-184, T30N); experiment: co-IP
T2 sequence (looked up): T1 sequence (looked up) with T30N, L70Q

- fold amount co-precipitated, against Arl2^T30N-Venus [1]: ~9.6 fold
B1: HA-TBCC (natural protein, Drosophila melanogaster, UniProt Q7KU40 1-355, looked up)
chain: MEGDAENRKDQILERLNKRNKDRQNYLDVKSELRSKETVQNEGVDYFYQTFSQKTMDIEQRLKDVQCGDGQPTDLARNFADITVEIQDLQRYLTASTMFLPDFKIKSCQNILNTLTAVSDETRQRLLPKKKFGFSGKKTVTKPKVPPNKDIVDAKLSKVPEKLGSNFTWTIANRTNEHIVLDSAKVNGQDITISKLNHCLVELQGHPGSVQVSRASKCTLLCGPIARSFFAENLEDCTLSIACQQLRLHSSRSIRIYMHVTCRAIIEDCKSIEIGEYNYDYSKLEADYLASGLNKAQNNYTDVADFNWLSPDVPSPNWSLLKDYPDPNWNALRRDFIANNHNSELKQDVKDISII

- fold amount co-precipitated, against Arl2^Q70L-Venus [2]: ~3.1 fold
B2: HA-TBCE (natural protein, Drosophila melanogaster, UniProt A1Z6J5 1-523, looked up)
chain: MVGIIDEVQLFYPLGTRIKIGDNYGTVRYVGEVSGHMGSWLGIEWDDGLRGKHNGIVDGKRYFQTQTPTGGSFIRPGKVGPCATLEDAARERYLNYDSSNVDESLIREAQASLQASLFEVVGMDKIARKQSKFEQLEEVSVDQTPVNAAGYLKELTHLTTLNVSHTLIWNWEIVASIAQQLPSLTNLNLSSNRLVLPTSSQITELEPSFRQLKRINLRSCGFSDWKDVMHTALLWPNILSLGLQENSLGQLAEVDRTKIFKQLHELDLHRTNIMDFDQVTKLGNLTTLRLLNIMENGIEEIKLPDCDSQEKLNIFVSLEQLNLLHNPIWNEADAFNELDKLPQLKRLSKTPHLKSNFDEMFSKAVASIASLQFINKAEVTAEQRRGAEYDIWKKYALDWMQATQGGTDSLREFCRRHRTYPLLVKKYGSPADFVPRSQAKQSNLINVSIRHQLTGETWEKKVPRMITVQTLQGLVMKRFRLSGDVPQLCYVDALHPDLVVPLDNNAKTLDFYSVQEHDTVLVQ
